{
  "source": "paper PMC4705532",
  "about": "““Click on the bidirectional switch”: the aptasensor for simultaneous detection of lysozyme and ATP with high sensitivity and high selectivity”",
  "binders": {"B1": {"name": "Lapt (lysozyme aptamer) (ssDNA)", "DNA": "ATCTACGAATTCATCAGGGCTAAAGAGTGCAGAGTTACTTAGACCTTCCTCCGCAATACTCCCCCAGGTT"}, "B2": {"name": "Lapt≈Aapt duplex (with methyl violet) (dsDNA)", "DNA 1": "B1 DNA", "DNA 2": "AACCTGGGGGAGTATTGCGGAGGAAGGTCTAAGTAACTCTGCACTCTTTAGCCCTGATGAATTCGTAGAT"}},
  "key": {"lysozyme [1]": {"target": "T1, lysozyme (UniProt P00698 19-147)", "T1 sequence (P00698 19-147)": "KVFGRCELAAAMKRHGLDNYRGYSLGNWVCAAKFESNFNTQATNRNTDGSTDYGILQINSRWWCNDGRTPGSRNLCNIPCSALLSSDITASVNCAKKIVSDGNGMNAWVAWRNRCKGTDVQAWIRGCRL", "assay": "resonance light scattering; 10 mM Tris pH 7.4, 2.0 uM methyl violet (duplex sensor), target binding 20 min at 37 °C; salt not stated", "details": "protein: commercial"}, "thrombin": {"target": "thrombin (UniProt P00734;P00734 328-363;364-622)", "assay": "resonance light scattering; 2.0 uM methyl violet; 100-fold excess; 10 mM Tris pH 7.4, 2.0 uM methyl violet (duplex sensor), target binding 20 min at 37 °C; salt not stated"}, "papain": {"target": "T2, papain (UniProt P00784 134-345)", "T2 sequence": "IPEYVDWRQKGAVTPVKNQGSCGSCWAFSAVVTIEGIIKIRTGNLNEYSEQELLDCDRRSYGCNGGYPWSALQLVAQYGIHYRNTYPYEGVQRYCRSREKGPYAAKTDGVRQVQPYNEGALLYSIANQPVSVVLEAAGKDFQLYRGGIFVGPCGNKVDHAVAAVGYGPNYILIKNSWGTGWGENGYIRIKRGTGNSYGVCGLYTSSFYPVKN", "assay": "resonance light scattering; 2.0 uM methyl violet; 100-fold excess; 10 mM Tris pH 7.4, 2.0 uM methyl violet (duplex sensor), target binding 20 min at 37 °C; salt not stated", "details": "protein: commercial; blunt"}, "ovalbumin": {"target": "ovalbumin (UniProt P01012 2-386)", "sequence (P01012 2-386)": "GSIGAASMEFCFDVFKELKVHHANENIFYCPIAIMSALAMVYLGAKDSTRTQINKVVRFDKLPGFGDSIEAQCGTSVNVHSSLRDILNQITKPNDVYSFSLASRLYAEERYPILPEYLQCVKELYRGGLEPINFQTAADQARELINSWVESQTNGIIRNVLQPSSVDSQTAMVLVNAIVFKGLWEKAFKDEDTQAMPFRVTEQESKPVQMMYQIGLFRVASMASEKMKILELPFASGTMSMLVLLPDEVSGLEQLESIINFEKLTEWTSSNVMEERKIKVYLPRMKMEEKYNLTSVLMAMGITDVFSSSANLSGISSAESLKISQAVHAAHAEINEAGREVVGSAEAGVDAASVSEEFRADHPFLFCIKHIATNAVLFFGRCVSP", "assay": "resonance light scattering; 2.0 uM methyl violet; 100-fold excess; 10 mM Tris pH 7.4, 2.0 uM methyl violet (duplex sensor), target binding 20 min at 37 °C; salt not stated", "details": "protein: commercial; blunt"}, "lysozyme [2]": {"target": "T1, lysozyme", "assay": "resonance light scattering; 2.0 uM methyl violet; lysozyme said to open the duplex and bind Lapt; 10 mM Tris pH 7.4, 2.0 uM methyl violet (duplex sensor), target binding 20 min at 37 °C; salt not stated", "details": "protein: commercial; blunt"}},
  "data": [
    {"binder": "B1", "values": [
      {"measurement": "binding result", "setting": "lysozyme [1]", "result": "binds"}
    ]},
    {"binder": "B2", "values": [
      {"measurement": "binding result", "setting": "thrombin", "result": "no binding"},
      {"measurement": "binding result", "setting": "papain", "result": "no binding"},
      {"measurement": "binding result", "setting": "ovalbumin", "result": "no binding"},
      {"measurement": "binding result", "setting": "lysozyme [2]", "result": "binds"}
    ]}
  ]
}
